Values of other authors, collected in article PMC3403913.

Biological target: factor Va (Homo sapiens) (UniProt P12259)
UniProt P12259, sequence (P12259 29-737, chain 1 of 2): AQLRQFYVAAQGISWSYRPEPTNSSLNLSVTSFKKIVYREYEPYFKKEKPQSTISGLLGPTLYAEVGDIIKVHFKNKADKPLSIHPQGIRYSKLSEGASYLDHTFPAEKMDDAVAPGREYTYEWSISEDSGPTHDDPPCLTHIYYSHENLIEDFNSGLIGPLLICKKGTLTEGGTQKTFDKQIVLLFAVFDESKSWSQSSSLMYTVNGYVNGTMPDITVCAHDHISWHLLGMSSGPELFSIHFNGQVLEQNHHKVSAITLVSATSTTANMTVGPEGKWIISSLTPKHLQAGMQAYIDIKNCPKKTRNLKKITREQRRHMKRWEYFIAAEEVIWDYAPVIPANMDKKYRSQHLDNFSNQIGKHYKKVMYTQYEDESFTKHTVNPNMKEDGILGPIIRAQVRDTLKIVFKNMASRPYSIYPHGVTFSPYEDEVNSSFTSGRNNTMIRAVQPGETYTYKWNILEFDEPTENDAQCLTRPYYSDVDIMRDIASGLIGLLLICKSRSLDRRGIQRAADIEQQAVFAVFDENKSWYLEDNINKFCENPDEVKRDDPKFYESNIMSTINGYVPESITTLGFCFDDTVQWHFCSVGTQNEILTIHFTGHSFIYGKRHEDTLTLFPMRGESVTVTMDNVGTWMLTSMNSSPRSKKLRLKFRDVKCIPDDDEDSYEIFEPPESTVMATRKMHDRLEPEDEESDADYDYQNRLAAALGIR
UniProt P12259, sequence (P12259 1574-2224, chain 2 of 2): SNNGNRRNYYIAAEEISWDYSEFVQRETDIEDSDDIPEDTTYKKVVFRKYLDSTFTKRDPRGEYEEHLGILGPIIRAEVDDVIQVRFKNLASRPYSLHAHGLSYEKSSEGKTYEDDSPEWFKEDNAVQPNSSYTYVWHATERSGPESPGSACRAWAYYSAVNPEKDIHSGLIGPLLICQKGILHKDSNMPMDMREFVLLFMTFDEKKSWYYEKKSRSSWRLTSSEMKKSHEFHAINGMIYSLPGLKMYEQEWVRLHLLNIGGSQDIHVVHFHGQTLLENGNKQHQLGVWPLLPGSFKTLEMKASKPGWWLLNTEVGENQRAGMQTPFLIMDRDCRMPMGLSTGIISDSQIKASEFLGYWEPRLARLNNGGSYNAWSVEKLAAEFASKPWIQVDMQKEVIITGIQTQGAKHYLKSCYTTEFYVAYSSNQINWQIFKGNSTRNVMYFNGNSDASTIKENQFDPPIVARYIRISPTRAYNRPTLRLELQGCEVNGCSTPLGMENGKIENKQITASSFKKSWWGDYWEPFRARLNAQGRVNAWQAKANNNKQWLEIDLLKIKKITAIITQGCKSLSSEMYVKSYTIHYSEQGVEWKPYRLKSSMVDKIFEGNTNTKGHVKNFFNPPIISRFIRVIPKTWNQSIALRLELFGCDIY

factor Xa (from UniProt P00742)
Kd: 0.5 nM
